Source: the supplement of paper PMC10567573

B1: FBF1 (parent)
chain: FGDSPKAEKRQIGDQEGPRPARST

Variants of: B1
Experiment: protein stability index of a GFP-peptide fusion (GPS, HEK-293T) (PSI 1-6); higher = more stable
Conditions: c terminus: a fixed tail appended
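Further: lentivirally expressed fusions sorted by FACS into six bins by GFP to DsRed ratio, PSI derived from sequencing read proportions per bin multiplied by bin number.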

Protein stability index: each site, then its substitutions
G13: T 5.03, H 4.69, E 5.34, P 5.16, D 5.53, Y 4.86, W 2.74, Q 5.45, K 5.24, S 4.82, M 4.24, C 5.04, A 4.98, V 4.54, R 5.09, I 4.44, L 4.17, F 4.71, N 5.01
R10: K 4.76, L 4.59, D 5.29, I 5.19, Y 4.97, S 5.44, H 4.63, N 5.42, E 5.63, A 5.42, M 5.06, T 5.58, C 5.02, Q 4.86, W 3.46
I12: M 5.04, G 5.03, A 4.73, D 4.89, P 5.12, Y 4.24, N 5.5, V 5.4, S 5.47, C 2.83, F 4.47, R 5.17, E 5.27, T 4.32, Q 5.5, L 4.78
A21: D 5.5, S 4.37, Y 4.86, T 5.9, R 4.59, P 5.19, V 5.42, N 5.34, M 4.92, H 4.93, G 5.73, Q 5.62, K 5.23, C 5.2, I 4.77, L 4.17, F 4.52
S4: L 5.27, W 2.73, P 5.05, Y 4.31, G 4.96, K 4.79, N 4.79, H 5.43, M 4.68, A 4.3, F 4.75, V 5.61, R 4.88, D 5.43, Q 4.75, T 4.16, E 5.2, C 5.01, I 5.33
Q15: I 4.65, D 5.65, M 5.03, T 4.96, C 4.23, N 4.69, Y 4.53, P 5.38, W 4.25, H 3.53, S 5.72, R 4.28, F 4.32, V 4.81
A7: S 5.09, I 5.03, L 5.32, E 5.89, K 5.31, N 5.24, G 4.89, Y 4, R 5.15, T 4.44, V 3.47, F 3.85, H 4.03, Q 5.1, D 5.53
G2: S 4.96, R 5.98, V 1.77, W 5.31, Y 5.18, T 4.82, P 5.29, Q 4.99
Q11: F 3.59, S 5.29, E 5.33, W 3.76, M 5.22, H 5.16, L 4.7, I 4.61, G 5.34, C 5.06, P 5.25, N 5.38, T 5, A 5.6, D 5.29, K 4.86, V 5.08, Y 4.45
D3: M 4.57, N 5.06, R 4.97, P 5.14, L 5.13, T 4.99, A 4.79, W 3.87, S 4.89, C 4.62, F 5.01, Q 5.25, V 5.55, K 4.17, Y 4.67, I 5.04, E 5.41, H 4.49
E16: F 4.55, C 4.79, I 4.83, S 5.27, D 5.75, Q 5.19, W 3.48, G 3.41, A 4.55, M 4.57, P 5.09, K 4.81, L 4.66, Y 4.14, H 4.21, T 5.03, N 4.98, V 4.99, R 5.02
P5: G 4.79, Y 4.86, W 1.37, L 4.58, H 5, C 4.63, T 5.19, I 4.89, E 5.24, V 4.13, D 5.72, S 4.84, Q 4.55, M 4.88, N 5.53, F 3.64, R 4.75, A 4.85, K 4.43
D14: S 4.84, V 4.72, Y 4.54, I 4.38, H 5, A 4.87, K 4.5, Q 4.42, M 4.1, N 5.15, T 5, C 4.7, R 4.82, F 4.65, G 4.71, L 4.68, E 5.03, W 4, P 5.09
R22: A 5.15, D 5.27, C 5.26, E 4.79
G17: M 4.83, V 4.42, L 4.77, C 4.94, D 5.24, H 4.83, A 5.52, K 5.02, P 5.54, T 4.67, I 4.34, Q 5.15, Y 4.68, E 5.34, N 5.06, S 5.46, R 5.1, F 4.57, W 4.17
P18: R 4.78, L 5.02, Y 4.5, K 5.21, G 5.33, V 4.96, S 4.87, F 4.85, C 5.22, Q 4.72, M 4.71, H 4.77, A 5.27, E 5.54, I 4.17, T 4.69, N 4.15, D 5.48
K9: Q 5.53, F 4.43, S 5.47, D 5.52, V 4.89, H 5.22, Y 4.74, G 5.2, A 4.97, R 5.46, N 5.93, I 5.23, P 5.54, E 5.1, T 5.17
P20: F 4.57, D 5.07, W 4.58, Q 5.39, H 4.95, S 5.02, M 4.96, I 4.84, G 3.96, E 5.58, Y 4.91, L 4.46, V 4.54, R 5.26, N 4.89, A 5.25, K 4.72, T 5.08
R19: G 5.13, Y 4.21, S 5.4, F 4.87, D 5.3, E 5.73, I 5.08, K 4.88, N 5.34, L 4.9, T 4.23, H 3.86, Q 4.91, W 3.25, C 5.4, M 4.9
K6: D 5.22, Y 4.8, C 5.52, F 4.06, I 4.78, S 5.64, P 4.89, W 4.57, L 4.84, Q 3.71, T 5.56, V 4.24, E 5.25, N 5.08, A 5.55
E8: S 4.58, L 3.87, Q 4.48, F 3.27, D 5.48, I 4.26, A 4.84, T 3.77, R 4.43, Y 3.39, N 4.53, C 4.11, P 4.97
